Results reported in US20220041716A1 (BEIJING NEOLETIX BIOLOGICAL TECHNOLOGY, published 2022).

T1: human extracellular domain of TLT-1-Fc tagged protein (sTLT-1-Fc) (human, UniProt Q86YW5 16-162)
T1 construct: also called SILT-1-Fc; extracellular domain of human TLT-1; not shown: Fc tag
T1 sequence: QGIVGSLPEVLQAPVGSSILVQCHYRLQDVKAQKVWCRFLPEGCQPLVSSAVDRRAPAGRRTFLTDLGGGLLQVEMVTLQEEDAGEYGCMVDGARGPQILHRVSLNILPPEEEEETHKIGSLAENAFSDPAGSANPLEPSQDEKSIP

T2: human extracellular domain of TLT-1-Fc tagged protein (sTLT-1-Fc) (UniProt Q86YW5 16-162)
T2 chain: T1 sequence

T3: mouse TLT-1 on activated mouse platelets (mouse, UniProt Q8K558 21-317)
T3 construct: whole, on cells
T3 sequence (looked up): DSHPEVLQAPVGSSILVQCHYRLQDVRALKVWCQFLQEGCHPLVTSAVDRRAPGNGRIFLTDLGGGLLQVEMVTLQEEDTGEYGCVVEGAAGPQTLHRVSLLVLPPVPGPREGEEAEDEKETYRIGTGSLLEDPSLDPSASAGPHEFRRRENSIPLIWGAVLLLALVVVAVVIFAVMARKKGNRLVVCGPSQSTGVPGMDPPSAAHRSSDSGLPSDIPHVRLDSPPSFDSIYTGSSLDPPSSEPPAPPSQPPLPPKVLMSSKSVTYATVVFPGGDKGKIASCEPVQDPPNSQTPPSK

B1: sdAb 2-33TLT-His (VHH)
VHH: QVQLVESGGGLVQPGGSLTLSCAASGSIANIGGMAWYRRLPGNKRAMVASITSAGTASSYIDSVKGRFTISRDNAKNTVYLQMTSLKPEDTAVYLCKAWDRDLVDYWGQGIQVTVSS
notes: also called sdAb-2-33-His
B2: sTF209-PC1-sdAb 2-90TLT-His (other)
chain: MASMSGTTNTVAAYNLTWKSTNFKTILEWEPKPVNQVYTVQISTKSGDWKSKCFYTTDTECDLTDEIVKDVKQTYLARVFSYPAGNVESTGSAGEPLYENSPEFTPYLETNLGQPTIQSFEQVGTKVNVTVEDERTLVRRNNTFLSLRDVFGKDLIYTLYYWKSSSSGKKTAKTNTNEFLIDVDKGENYCFSVQAVIPSRTVNRKSTDSPVECGSGGGTGGGSGGSGGGTGGGSGAIEPRSFSQNQVQLVESGGGLVQAGGSLTLSCAASGSTSGINVMAWYRQAPGKQRELVANKARGGLPKYADFAKGRFTISRDNTKNTISLQMNSLKPEDTAVYYCNALLDWRLGDYWGQGTQVTVSSHHHHHH
notes: the entry also holds vector-derived N-terminal residues
B3: sdAb 2-90TLT-His (VHH)
VHH: QVQLVESGGGLVQAGGSLTLSCAASGSTSGINVMAWYRQAPGKQRELVANKARGGLPKYADFAKGRFTISRDNTKNTISLQMNSLKPEDTAVYYCNALLDWRLGDYWGQGTQVTVSS
notes: also called sdAb-2-90-His
B4: sTF209-PC1-sdAb 2-33TLT-His (other)
chain: MASMSGTTNTVAAYNLTWKSTNFKTILEWEPKPVNQVYTVQISTKSGDWKSKCFYTTDTECDLTDEIVKDVKQTYLARVFSYPAGNVESTGSAGEPLYENSPEFTPYLETNLGQPTIQSFEQVGTKVNVTVEDERTLVRRNNTFLSLRDVFGKDLIYTLYYWKSSSSGKKTAKTNTNEFLIDVDKGENYCFSVQAVIPSRTVNRKSTDSPVECGSGGGTGGGSGGSGGGTGGGSGAIEPRSFSQNQVQLVESGGGLVQPGGSLTLSCAASGSIANIGGMAWYRRLPGNKRAMVASITSAGTASSYIDSVKGRFTISRDNAKNTVYLQMTSLKPEDTAVYLCKAWDRDLVDYWGQGIQVTVSSHHHHHH
notes: the entry also holds vector-derived N-terminal residues; also called sTF209-PC1-dAb 2-33TLT-His; sTF209-sdAb 2-33TLT-His

Key:
[1] = molecular target: T1, human extracellular domain of TLT-1-Fc …; assay: ELISA, human TLT-1 extracellular domain coated, anti-His-HRP detection, Kd fitted from OD450
Method: The extracellular domain of human TLT-1 protein was coated onto a 96-well plate for ELISA. After 24 hours incubation at 4° C. and 2 hours of blocking at room temperature (RT) with the blocking buffer, increasing concentrations of ten anti-TLT-1 sdAbs, sTF₂₀₉-PC1sdAb 2-33TLT-His and sTF₂₀₉-PC2sdAb 2-90TLT-His proteins were added to the respective wells for 1-hour incubation at RT. Anti-His tag—HRP-labeled antibody was used to evaluate the binding.
The binding of sdAb 2-33TLT-His, sdAb 2-132TLT-His, sdAb 2-25TLT-His, sdAb 2-64 TLT-His, sdAb 2-90TLT-His, sdAb 2-127TLT-His, sdAb 2-2 TLT-His, sdAb 3-32TLTcur-His; sdAb 3-38TLT-His and sdAb 2-69TLT-His, sTF₂₀₉-PC1-sdAb 2-33TT-His and s TF₂₀₉-PC1-sdAb 2-90TLT-His proteins to the human extracellular domain of TLT-1-Fc tagged protein (sTLT-1-Fc) was analyzed using ELISA, sTLT-1-Fc (3 μg/ml) was immobilized onto a 96-well plate for 24 hours at 4° C. and each well immobilized with SILT-1-Fc was blocked with 2% BSA PBST (PBS plus 0.1% Tween 20) for 2 hours at room temperature (RT). Serial dilution (1000 nM to 0.001 nM) of TLT-sdAbs and sTF-sdAb fusion proteins was performed and diluted proteins were then added to the coated 96-well platelet and incubated for 1 hour. After 3 times of washing with PBST, anti-His HRP antibody was added and incubated for 1 hour at RT. The plate was then washed for 3 times to remove the excess HRP conjugate and 100 μL TMB substrate was then added and incubated for 10-15 mins. To stop the reaction of color development, 2M sulfuric acid was added to the well.

[2] = molecular target: T2, human extracellular domain of TLT-1-Fc …; assay: ELISA
[3] = molecular target: T2, human extracellular domain of TLT-1-Fc …; assay: ELISA
[4] = molecular target: T3, mouse TLT-1 on activated mouse platelets; assay: flow cytometry, collagen-activated mouse platelets in whole blood, FITC anti-His detection
Method: To prepare activated human platelets, ADP (5 and 20 μM) were preincubated with human whole blood and the above proteins were then added to the ADP-treated whole blood. To prepare activated mouse platelets, collagen, at either 5 μg/ml or 10 μg/ml, was preincubated with mouse whole blood and the above proteins were then added to the […] whole blood. The binding of the proteins with platelets was detected with FITC-labeled—anti-His tag antibody.
The binding capability of sdAb 2-33TLT-His, sdAb sTF₂₀₉-PC1-sdAb 2-33TLT-His and sTF₂₀₉-PC1-sdAb 2-90TLT-His proteins to both human and mouse resting and activated platelets was tested by FACS assay. Citrated human (3 donors) and mouse (12 mice) whole blood were collected at room temperature (RT) and 10 μL of whole blood was used for each sample. To activate human platelets, ADP (5 and 20 μM) was used, and incubated with whole blood for 10 min at room temperature (RT). To activate mouse platelet, Type I fibrillary collagen (5 and 10 ug/ml) was used and incubated with whole blood for 10 min at room temperature (RT). […] After incubation for 30 min at room temperature, all samples were fixed with 500 μL of 5% paraformaldehyde for 10 min at RT and. analyzed by FACS (LSR II, Beckon Dickinson, San Jose, Calif.).

[5] = molecular target: T2, human extracellular domain of TLT-1-Fc …; assay: ELISA; second row printed 2-33; plot key shows sdAb 2-90TLT-His

Binder | Kd [1] | Kd [2] | Kd [3] | binding result [4] | Kd [5]
B1 | < 10 nM | 4.47 nM | 2.74 nM | – | –
B2 | < 10 nM | 1.19 nM | – | binds | –
B3 | < 10 nM | – | 2.39 nM | binds | 2.67 nM
B4 | < 10 nM | 2.28 nM | – | – | –
